The results in this text go back to PMC8229532 (Structure (London, England : 1993), 2010).

The data set deals with the molecule itself. Briefly: crystal structure.

B1: Phd (prevents host death) antitoxin of bacteriophage P1 (natural protein, UniProt Q06253 1-73, looked up)
chain: MQSINFRTARGNLSEVMNNVEAGEEVEITRRGREPAVIASKATFEAYKKAALDAEFASLFDTLDSTNKELVNR
modifications: selenomethionine (expressed in MJ9 minimal medium supplemented with selenomethionine)
Take B1: the binding result was “binds”.
